Assay results: CN114075288A (CHIA TAI TIANQING PHARMACEUTICAL GROUP CO LTD, dated 2022)

T1: 人PD-L2，稳定表达于U2OS细胞系 (PD-L2-U2OS) (human, UniProt Q9BQ51 20-273)
T1 construct: whole, on cells; also called U2OS-PD-L2; 配体细胞
T1 sequence (looked up): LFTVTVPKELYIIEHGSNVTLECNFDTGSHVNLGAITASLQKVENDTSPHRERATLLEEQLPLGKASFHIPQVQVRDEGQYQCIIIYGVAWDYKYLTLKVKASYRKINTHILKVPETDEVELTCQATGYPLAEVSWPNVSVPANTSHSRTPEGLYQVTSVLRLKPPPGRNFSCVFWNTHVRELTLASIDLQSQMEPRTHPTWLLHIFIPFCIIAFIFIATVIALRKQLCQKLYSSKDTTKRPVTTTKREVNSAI

T2: hPD-L2-His (ACRObiosystems，目录号:PD2-H5220) (human, UniProt Q9BQ51 20-219)
T2 construct: Bought protein (ACRObiosystems PD2-H5220); also called 人PD-L2抗原; 重组体hPD-L2-His蛋白; not shown: His tag
T2 sequence (looked up): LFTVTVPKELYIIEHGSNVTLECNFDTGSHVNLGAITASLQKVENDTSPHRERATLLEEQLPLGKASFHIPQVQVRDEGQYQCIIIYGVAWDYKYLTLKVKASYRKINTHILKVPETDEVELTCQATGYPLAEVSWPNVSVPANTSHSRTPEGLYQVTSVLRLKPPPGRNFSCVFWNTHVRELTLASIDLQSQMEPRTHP


Legend:
[1] = target: T1, 人PD-L2，稳定表达于U2OS细胞系 (PD-L2-U2OS); assay: flow cytometry on PD-L2-U2OS cells
[2] = target: T1, 人PD-L2，稳定表达于U2OS细胞系 (PD-L2-U2OS); assay: cell-based or functional assay
[3] = target: T2, hPD-L2-His …; assay: ELISA, coated hPD-L2-His

Row | EC50 [1] [µg/mL] | IC50(ng/mL), 化学发光信号, 基于细胞的抗体阻断分析 [2] [ng/mL] | EC50 [3] [µg/mL] | Binder
1 | 0.54 | 680 |  | 嵌合25G4抗体 (antibody, human IgG1, kappa, V domains shown, also called Xi25G4) VH: QVQLQQPGVEVVRPGAPVKLSCKASGYTFTTNWMNWVKQRPGRGLEWIGRIDPSDSETHYNQQFKDKATLTVDKSSNTAYIQLSSLTSEDSAVYYCVREGIYGPWFAYWGQGTLVTVSA VL: DIVMTQSPASLAVSLGQRATISCRASESVDNYGISLMHWYQQKPGQPPKLLIYRASDLESGIPARFSGSGSRTDFTLTINPVETDDVATYYCQQSDKDPPTFGAGTKLELKR
2 |  | 700 | 0.0874 | 人源化25G4-1.2抗体 (antibody, human IgG1, kappa, V domains shown, human IgG1 / human kappa; also called Hz25G4-1.2) VH: QVQLVQSGAEVKKPGASVKVSCKASGYTFTTNWMNWVRQAPGQGLEWMGRIDPSESETHYAQKFQGRVTMTVDKSTNTVYMELSSLRSEDTAVYYCVREGIYGPWFAYWGQGTLVTVSS VL: DIQMTQSPSSLSASVGDRVTITCRASESVDNYGISLMHWYQQKPGKAPKLLIYRASDLESGVPSRFSGSGSRTDFTLTISSLQPEDFATYYCQQSDKDPPTFGQGTKVEIKR
3 | 1.12 | 342 |  | 嵌合14E7抗体 (antibody, human IgG1, kappa, V domains shown, also called Xi14E7) VH: QVQLQQSGPQLVRPGASVKISCKASGYSFTSYWMHWVKQRPGQGLDWIGMIDPSDSETRLNQKFKDKATLTVDKSSSTAYMQLSSPTSEDSAVYYCARWALQYFDYWGQGTTLTVSS VL: DIVMTQSQKFMSTTVGDRVSITCKASQNVGAAVAWYQQKPGQSPKLLIYSASNRYPGVPDRFTGSGSGTDFTLTISNMHSEDLADYFCQQYRPYPFTFGGGTKLEIKR
4 | 0.967 | 221 |  | 嵌合24A3抗体 (antibody, human IgG1, kappa, V domains shown, also called Xi24A3) VH: QVQLQQSGAEVVRSGTSVKVSCKASGYAFTNYLIEWVKQRPGQGLEWIGVINPVNGGISYNEKFKGKATLTADKSSSTVYMQLSSLTSDDSAVYFCIRSGGNYGGDYWGQGTTLTVSS VL: DVVVTQTPKFLPVTAEDRVTITCKASQSVSNEVAWYQQKPGQSPKLLIYYASHRYTGVPDRFTGSGSGTDFTFTISSVQVEDLAVYFCQQHFSSPLTFGAGTKLELKR
5 | 0.43 |  |  | 嵌合7A7抗体 (antibody, human IgG1, kappa, V domains shown, made in Expi-CHO; also called Xi7A7) VH: EVQLQQSGPELVKPGASMKISCKASGYSFSGYTMNWVKQSLGKNLEWIGLISPYNGVTTYNQKFKGKASLTVDTSSNTAYMELLSLTSDDSAVYYCARGVTVPLRFDVWGAGTPVTVSS VL: DIVMTQSPSSLTVTTGEKVTMSCKSSQSLLNSGNQKNYLTWYQQKTGQPPKLLIYWASTRESGVPDRFTGSGSGTDFTLTINNVQAEDLAVYYCQNDDSYPLTFGAGTKLELKR

The remaining lines, values behind:

Row | Binder | EC50 [1] [µg/mL] | IC50(ng/mL), 化学发光信号, 基于细胞的抗体阻断分析 [2] [ng/mL] | EC50 [3] [µg/mL]
6 | 人源化25G4-1.1抗体 (antibody, human IgG1, kappa, V domains shown, human IgG1 / human kappa; also called Hz25G4-1.1) VH: QVQLVQSGAEVKKPGASVKVSCKASGYTFTTNWMNWVRQAPGQGLEWMGRIDPSDSETHYAQKFQGRVTMTVDKSTNTVYMELSSLRSEDTAVYYCVREGIYGPWFAYWGQGTLVTVSS VL: DIQMTQSPSSLSASVGDRVTITCRASESVDNYGISLMHWYQQKPGKAPKLLIYRASDLESGVPSRFSGSGSRTDFTLTISSLQPEDFATYYCQQSDKDPPTFGQGTKVEIKR | 0.483 | 1000 | 0.0689
7 | 人源化24A3-1.1抗体 (antibody, human IgG1, kappa, V domains shown, human IgG1 / human kappa; also called Hz24A3-1.1) VH: QVQLVQSGAEVKKPGASVKVSCKASGYAFTNYLIEWVRQAPGQGLEWMGVINPVNGGISYAQKFQGRVTMTADKSTSTVYMELSSLRSEDTAVYYCARSGGNYGGDYWGQGTLVTVSS VL: DVVMTQSPDSLAVSLGERATISCKASQSVSNEVAWYQQKPGQPPKLLIYYASHRYTGVPDRFSGSGSGTDFTLTISSLQAEDVAVYYCQQHFSSPLTFGQGTKVEIKR | 1.05 | 1950 | 0.167
8 | 人源化24A3-1.2抗体 (antibody, human IgG1, kappa, V domains shown, human IgG1 / human kappa; also called Hz24A3-1.2) VH: QVQLVQSGAEVKKPGASVKVSCKASGYAFTNYLIEWVRQAPGQGLEWMGVINPVQGGISYAQKFQGRVTMTADKSTSTVYMELSSLRSEDTAVYYCARSGGNYGGDYWGQGTLVTVSS VL: DVVMTQSPDSLAVSLGERATISCKASQSVSNEVAWYQQKPGQPPKLLIYYASHRYTGVPDRFSGSGSGTDFTLTISSLQAEDVAVYYCQQHFSSPLTFGQGTKVEIKR | 0.62 | 1420 | 0.223
9 | 人源化7A7-1.1抗体 (antibody, human IgG1, kappa, V domains shown, human IgG1 / human kappa; also called Hz7A7-1.1) VH: QVQLVQSGAEVKKPGASVKVSCKASGYSFSGYTMNWVRQAPGQGLEWMGLISPYNGVTTYAQKFQGRVTMTVDTSTNTVYMELSSLRSEDTAVYYCARGVTVPLRFDVWGQGTLVTVSS VL: DIQMTQSPSSLSASVGDRVTITCKSSQSLLNSGNQKNYLTWYQQKPGKAPKLLIYWASTRESGVPSRFSGSGSGTDFTLTISSLQPEDFATYYCQNDDSYPLTFGQGTKVEIKR | 0.613 | 585 | 0.308
10 | 人源化7A7-2.1抗体 (antibody, human IgG1, kappa, V domains shown, human IgG1 / human kappa; also called Hz7A7-2.1) VH: QVQLVQSGAEVKKPGASVKVSCKASGYSFSGYTMNWVRQAPGQGLEWMGLISPYNGVTTYAQKFQGRVTMTVDTSTNTVYMELSSLRSEDTAVYYCARGVTVPLRFDVWGQGTLVTVSS VL: DIQMTQSPSSLSASVGDRVTITCKSSQSLLQSGNQKNYLTWYQQKPGKAPKLLIYWASTRESGVPSRFSGSGSGTDFTLTISSLQPEDFATYYCQNDDSYPLTFGQGTKVEIKR | 0.924 | 144 | 1.12
11 | 人源化7A7-1.2抗体 (antibody, human IgG1, kappa, V domains shown, human IgG1 / human kappa; also called Hz7A7-1.2) VH: QVQLVQSGAEVKKPGASVKVSCKASGYSFSGYTMNWVRQAPGQGLEWMGLISPYQGVTTYAQKFQGRVTMTVDTSTNTVYMELSSLRSEDTAVYYCARGVTVPLRFDVWGQGTLVTVSS VL: DIQMTQSPSSLSASVGDRVTITCKSSQSLLNSGNQKNYLTWYQQKPGKAPKLLIYWASTRESGVPSRFSGSGSGTDFTLTISSLQPEDFATYYCQNDDSYPLTFGQGTKVEIKR | 0.833 | 374 | 0.68
12 | 人源化14E7-1.1抗体 (antibody, human IgG1, kappa, V domains shown, human IgG1 / human kappa; also called Hz14E7-1.1) VH: QVQLVQSGAEVKKPGASVKVSCKASGYSFTSYWMHWVRQAPGQGLEWMGMIDPSDSETRYAQKFQGRVTMTVDKSTSTVYMELSSLRSEDTAVYYCARWALQYFDYWGQGTLVTVSS VL: DIQMTQSPSTLSASVGDRVTITCKASQNVGAAVAWYQQKPGKAPKLLIYSASNRYPGVPSRFSGSGSGTEFTLTISSLQPDDFATYYCQQYRPYPFTFGQGTKVEIKR | 0.443 | 112 | 0.115
13 | 人源化14E7-1.2抗体 (antibody, human IgG1, kappa, V domains shown, human IgG1 / human kappa; also called Hz14E7-1.2) VH: QVQLVQSGAEVKKPGASVKVSCKASGYSFTSYWMHWVRQAPGQGLEWMGMIDPSESETRYAQKFQGRVTMTVDKSTSTVYMELSSLRSEDTAVYYCARWALQYFDYWGQGTLVTVSS VL: DIQMTQSPSTLSASVGDRVTITCKASQNVGAAVAWYQQKPGKAPKLLIYSASNRYPGVPSRFSGSGSGTEFTLTISSLQPDDFATYYCQQYRPYPFTFGQGTKVEIKR |  | 2660 | 0.0333
